Laboratory results: the supplement of paper PMC10724198
± gives the standard deviation of the averaged measurements.

What was measured:
Saccharomyces cerevisiae [1] = assay: protein stability index of tFT-peptide fusion (C-terminal peptide) (PSI (0-1 scale)); higher = more stable (slower turnover)
Experimental: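 MPS profiling in S. cerevisiae of the tFT-X12 degron library: putative degron peptides plus stable controls, 12 aa, fused to the C-terminus of a sfGFP-mCherry timer. Cells are FACS-sorted into 8 mCherry/sfGFP bins and deep-sequenced. PSI runs from 0 (unstable) to 1 (stable). Backgrounds are wild type, das1Δ and doa10Δ at 30 °C, and wild type, das1Δ, cdc34-1 and cdc53-1 at 37 °C; 2-3 technical replicates each.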

Saccharomyces cerevisiae [2] = assay: as above; details: genetic background: wild type; temperature: 30 C
[3] = genetic background: cdc34-1, temperature: 37 C
[4] = genetic background: cdc53-1, temperature: 37 C
[5] = genetic background: das1 deletion, temperature: 30 C
[6] = genetic background: das1 deletion, temperature: 37 C
[7] = genetic background: doa10 deletion, temperature: 30 C
[8] = genetic background: wild type, temperature: 30 C
[9] = genetic background: wild type, temperature: 37 C
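Further: PSI is a weighted mean of sequencing reads over stability bins, variants kept only with over 10 reads, mCherry proximal and sfGFP distal, peptide attached via GGGS linker.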

Sequence | protein stability index (Saccharomyces cerevisiae [1]; [3]) | protein stability index (Saccharomyces cerevisiae [1]; [4]) | protein stability index (Saccharomyces cerevisiae [1]; [5]) | protein stability index (Saccharomyces cerevisiae [1]; [6]) | protein stability index (Saccharomyces cerevisiae [1]; [7]) | protein stability index (Saccharomyces cerevisiae [1]; [8]) | protein stability index (Saccharomyces cerevisiae [1]; [9]) | protein stability index (Saccharomyces cerevisiae [2])
NFFYLFLSFGFG | 0.523 ± 0.076 | 0.565 ± 0.034 | 0.48 ± 0.025 | 0.588 ± 0.0086 | 0.46 ± 0.029 | 0.482 ± 0.03 | 0.552 ± 0.0068 | 0.436 ± 0.022
ERLVFKRWYLCL | 0.585 ± 0.028 | 0.605 ± 0.062 | 0.571 ± 0.033 | 0.7056 ± 0.0052 | 0.0726 ± 0.026 | 0.0951 ± 0.039 | 0.136 ± 0.0091 | 0.123 ± 0.018
WTILTVMFCSYI | 0.312 ± 0.011 | 0.396 ± 0.014 | 0.276 ± 0.026 | 0.418 ± 0.031 | 0.282 ± 0.0044 | 0.261 ± 0.022 | 0.377 ± 0.019 | 0.275 ± 0.026
AGMIKLRKKKVL | 0.6487 ± 0.003 | 0.7395 ± 0.003 | 0.634 ± 0.021 | 0.7208 ± 0.0012 | 0.208 ± 0.026 | 0.248 ± 0.041 | 0.452 ± 0.0093 | 0.417 ± 0.042
PLGGLVILLLSS | 0.488 ± 0.017 | 0.541 ± 0.0075 | 0.349 ± 0.028 | 0.548 ± 0.014 | 0.194 ± 0.0033 | 0.224 ± 0.017 | 0.4074 ± 0.00071 | 0.293 ± 0.014
YVLVVSFLACVF | 0.0628 ± 0.013 | 0.172 ± 0.053 | 0.142 ± 0.03 | 0.266 ± 0.0094 | 0.104 ± 0.021 | 0.13 ± 0.014 | 0.234 ± 0.0088 | 0.192 ± 0.012
TFRVLREIILTA | 0.2 ± 0.021 | 0.228 ± 0.021 | 0.206 ± 0.029 | 0.33 ± 0.023 | 0.151 ± 0.011 | 0.178 ± 0.024 | 0.277 ± 0.0079 | 0.249 ± 0.0078
CSPVNGSAVWSI | 0.688 ± 0.032 | 0.736 ± 0.016 | 0.668 ± 0.02 | 0.7551 ± 0.00081 | 0.664 ± 0.019 | 0.667 ± 0.017 | 0.7093 ± 0.0046 | 0.699 ± 0.076
LLVFSSPPPAKF | 0.91 ± 0.036 | 0.901 ± 0.018 | 0.799 ± 0.055 | 0.833 ± 0.025 | 0.808 ± 0.023 | 0.769 ± 0.026 | 0.869 ± 0.024 | 0.81 ± 0.023
FFLPIFFSIFLS | 0.068 ± 0.038 | 0.0346 ± 0.0085 | 0.152 ± 0.017 | 0.198 ± 0.0023 | 0.281 ± 0.0056 | 0.108 ± 0.022 | 0.155 ± 0.0049 | 0.156 ± 0.013
TPPIRCRLVRFL | 0.656 ± 0.059 | 0.735 ± 0.017 | 0.626 ± 0.029 | 0.7526 ± 0.00097 | 0.2071 ± 0.0014 | 0.219 ± 0.018 | 0.496 ± 0.0056 | 0.335 ± 0.029
RSGGVPGFGRLC | 0.703 ± 0.033 | 0.7361 ± 0.0064 | 0.661 ± 0.02 | 0.7301 ± 0.003 | 0.658 ± 0.034 | 0.653 ± 0.022 | 0.723 ± 0.037 | 0.745 ± 0.014
LFIYSVCSYYYE | 0.31 ± 0.037 | 0.411 ± 0.053 | 0.269 ± 0.038 | 0.461 ± 0.049 | 0.227 ± 0.0051 | 0.283 ± 0.016 | 0.418 ± 0.068 | 0.349 ± 0.0058
GGLRILLRLVWT | 0.471 ± 0.052 | 0.47 ± 0.014 | 0.377 ± 0.033 | 0.488 ± 0.008 | 0.381 ± 0.011 | 0.345 ± 0.045 | 0.471 ± 0.014 | 0.454 ± 0.025
LLLAMLLWVSTM | 0.422 ± 0.0061 | 0.361 ± 0.11 | 0.305 ± 0.034 | 0.483 ± 0.02 | 0.2826 ± 0.0026 | 0.306 ± 0.021 | 0.455 ± 0.038 | 0.388 ± 0.0058
LMFCPPLLRVAL | 0.44 ± 0.023 | 0.4421 ± 0.0031 | 0.372 ± 0.03 | 0.526 ± 0.015 | 0.399 ± 0.026 | 0.392 ± 0.018 | 0.473 ± 0.0086 | 0.485 ± 0.013
RCFLPVFCFVVF | 0.275 ± 0.0069 | 0.272 ± 0.0068 | 0.242 ± 0.037 | 0.413 ± 0.006 | 0.278 ± 0.014 | 0.227 ± 0.023 | 0.36 ± 0.0038 | 0.314 ± 0.018
NKEEHQQKQRIH | 0.636 ± 0.04 | 0.711 ± 0.02 | 0.663 ± 0.02 | 0.719 ± 0.031 | 0.619 ± 0.057 | 0.646 ± 0.049 | 0.698 ± 0.00079 | 0.461 ± 0.15
PPLSRLAVFIVV | 0.4397 ± 0.0027 | 0.487 ± 0.052 | 0.359 ± 0.036 | 0.524 ± 0.008 | 0.3027 ± 0.0018 | 0.353 ± 0.025 | 0.4823 ± 0.003 | 0.4605 ± 0.0023
RQRQLAKKQKNA | 0.601 ± 0.043 | 0.7044 ± 0.0043 | 0.646 ± 0.0074 | 0.73 ± 0.0076 | 0.141 ± 0.032 | 0.181 ± 0.021 | 0.306 ± 0.038 | 0.322 ± 0.016

Sequence | protein stability index (Saccharomyces cerevisiae [1]; [3]) | protein stability index (Saccharomyces cerevisiae [1]; [4]) | protein stability index (Saccharomyces cerevisiae [1]; [5]) | protein stability index (Saccharomyces cerevisiae [1]; [6]) | protein stability index (Saccharomyces cerevisiae [1]; [7]) | protein stability index (Saccharomyces cerevisiae [1]; [8]) | protein stability index (Saccharomyces cerevisiae [1]; [9]) | protein stability index (Saccharomyces cerevisiae [2])
GCPRSWSFNIYV | 0.686 ± 0.046 | 0.739 ± 0.0099 | 0.665 ± 0.013 | 0.742 ± 0.018 | 0.182 ± 0.018 | 0.199 ± 0.022 | 0.463 ± 0.013 | 0.408 ± 0.04
RSLRLFGCLGSL | 0.756 ± 0.029 | 0.762 ± 0.027 | 0.647 ± 0.019 | 0.751 ± 0.021 | 0.658 ± 0.039 | 0.647 ± 0.023 | 0.753 ± 0.016 | 0.7185 ± 0.0059
VWAWAVVVFVVL | 0.196 ± 0.054 | 0.343 ± 0.0075 | 0.205 ± 0.02 | 0.379 ± 0.017 | 0.171 ± 0.01 | 0.2 ± 0.035 | 0.385 ± 0.046 | 0.241 ± 0.009
SLYSFRCFFVLF | 0.35 ± 0.027 | 0.461 ± 0.022 | 0.408 ± 0.022 | 0.51 ± 0.019 | 0.182 ± 0.0065 | 0.17 ± 0.012 | 0.235 ± 0.0058 | 0.263 ± 0.032
RRFKINKKNKKF | 0.683 ± 0.028 | 0.749 ± 0.035 | 0.64 ± 0.048 | 0.761 ± 0.016 | 0.172 ± 0.026 | 0.189 ± 0.061 | 0.524 ± 0.12 | 0.339 ± 0.052
SFWLGVGIFFVG | 0.544 ± 0.038 | 0.597 ± 0.022 | 0.434 ± 0.028 | 0.618 ± 0.028 | 0.405 ± 0.013 | 0.419 ± 0.023 | 0.559 ± 0.015 | 0.481 ± 0.021
VYVVCFRLGCWV | 0.222 ± 0.0066 | 0.321 ± 0.013 | 0.199 ± 0.035 | 0.39 ± 0.0064 | 0.172 ± 0.0025 | 0.2 ± 0.022 | 0.371 ± 0.0082 | 0.297 ± 0.036
LFFRCVFRISFF | 0.274 ± 0.015 | 0.266 ± 0.0095 | 0.302 ± 0.03 | 0.387 ± 0.006 | 0.351 ± 0.027 | 0.254 ± 0.015 | 0.331 ± 0.0072 | 0.327 ± 0.0064
KTLCFLCRTRNS | 0.671 ± 0.025 | 0.73 ± 0.011 | 0.668 ± 0.027 | 0.76 ± 0.013 | 0.387 ± 0.014 | 0.433 ± 0.023 | 0.658 ± 0.017 | 0.52 ± 0.033
GARCFGFFCFLV | 0.4284 ± 0.0039 | 0.507 ± 0.027 | 0.447 ± 0.032 | 0.582 ± 0.011 | 0.127 ± 0.0078 | 0.115 ± 0.017 | 0.169 ± 0.0064 | 0.207 ± 0.011
SALLLWAISIIC | 0.0476 ± 0.0084 | 0.117 ± 0.055 | 0.169 ± 0.031 | 0.221 ± 0.011 | 0.117 ± 0.019 | 0.15 ± 0.023 | 0.185 ± 0.011 | 0.22 ± 0.015
FLLFLPLLFFFL | 0.414 ± 0.037 | 0.396 ± 0.0095 | 0.396 ± 0.024 | 0.456 ± 0.013 | 0.4578 ± 0.0037 | 0.377 ± 0.018 | 0.4384 ± 0.0031 | 0.3904 ± 0.001
GLLAWGCVFWVV | 0.402 ± 0.037 | 0.52 ± 0.01 | 0.336 ± 0.048 | 0.544 ± 0.01 | 0.167 ± 0.015 | 0.198 ± 0.017 | 0.3379 ± 0.00092 | 0.259 ± 0.014
VRFRLLNVLASA | 0.528 ± 0.0073 | 0.518 ± 0.048 | 0.395 ± 0.026 | 0.5582 ± 0.0043 | 0.34 ± 0.015 | 0.389 ± 0.021 | 0.5305 ± 0.0031 | 0.468 ± 0.056
RQFRNPLYAFVC | 0.496 ± 0.043 | 0.687 ± 0.011 | 0.566 ± 0.019 | 0.697 ± 0.014 | 0.124 ± 0.0069 | 0.137 ± 0.0092 | 0.187 ± 0.035 | 0.193 ± 0.021
HLFDMFFFLLHV | 0.514 ± 0.047 | 0.5932 ± 0.0025 | 0.488 ± 0.022 | 0.611 ± 0.0073 | 0.343 ± 0.0048 | 0.33 ± 0.022 | 0.504 ± 0.01 | 0.441 ± 0.027
TSARPFLYSFRP | 0.69 ± 0.036 | 0.7386 ± 0.0065 | 0.654 ± 0.018 | 0.739 ± 0.0082 | 0.65 ± 0.016 | 0.642 ± 0.019 | 0.705 ± 0.027 | 0.00961 ± 0.014
VRSTFVLGRWFA | 0.57 ± 0.0089 | 0.711 ± 0.0072 | 0.653 ± 0.029 | 0.7495 ± 0.0021 | 0.133 ± 0.0064 | 0.159 ± 0.018 | 0.312 ± 0.083 | 0.228 ± 0.062
NGSCRVVMYIKG | 0.667 ± 0.014 | 0.731 ± 0.022 | 0.592 ± 0.025 | 0.717 ± 0.014 | 0.588 ± 0.027 | 0.61 ± 0.0079 | 0.662 ± 0.017 | 0.552 ± 0.08
